Assay results from US20260218204, “APTAMERS SPECIFIC FOR TLR-4 AND USES THEREOF” (Merck Patent GmbH, published 2026).

Molecular target: TLR-4 extracellular domain (Homo sapiens, UniProt O00206 O00206:24-631)
Assay: ELONA; 200 nM aptamer, 20 mM Tris pH 7.4, 1 mM MgCl2, 150 mM NaCl, 5 mM KCl, 37 C; among the most efficient binders
Conditions: tags: C-terminal 6xHis, expressed in baculovirus; label: 5' digoxigenin (ELONA); predicted G4
Protocol: It was determined if the selected aptamers recognized the TLR-4 protein. To that end, 100 ng/well of 6×HIS-recombinant TLR-4 were added to a 96-well microtiter plate and were incubated at 4° C. for 16 h. Subsequently, individual aptamers labeled with digoxigenin in the 5′ end were diluted at a concentration of 5 μg/mL and then denatured for 10 min at 95° C. and cooled for 10 min on ice. Then, 20 pmol of each of the aptamers in 100 μl (200 nM) of aptamer buffer were added to each well and the plate was incubated for 1 h at 37° C. Finally, the plate was incubated with peroxidase-conjugated anti-digoxigenin antibodies and developed using ABTS. An anti-Li H2A DNA aptamer was used as a positive control (Martin et al., 2013, PLoS ONE 8: e78886).
By means of the same type of assay, aptamers TLRApt#2F and TLRApt#3R were identified.

Chain of TLR-4 extracellular domain (O00206 24-631, one chain of several): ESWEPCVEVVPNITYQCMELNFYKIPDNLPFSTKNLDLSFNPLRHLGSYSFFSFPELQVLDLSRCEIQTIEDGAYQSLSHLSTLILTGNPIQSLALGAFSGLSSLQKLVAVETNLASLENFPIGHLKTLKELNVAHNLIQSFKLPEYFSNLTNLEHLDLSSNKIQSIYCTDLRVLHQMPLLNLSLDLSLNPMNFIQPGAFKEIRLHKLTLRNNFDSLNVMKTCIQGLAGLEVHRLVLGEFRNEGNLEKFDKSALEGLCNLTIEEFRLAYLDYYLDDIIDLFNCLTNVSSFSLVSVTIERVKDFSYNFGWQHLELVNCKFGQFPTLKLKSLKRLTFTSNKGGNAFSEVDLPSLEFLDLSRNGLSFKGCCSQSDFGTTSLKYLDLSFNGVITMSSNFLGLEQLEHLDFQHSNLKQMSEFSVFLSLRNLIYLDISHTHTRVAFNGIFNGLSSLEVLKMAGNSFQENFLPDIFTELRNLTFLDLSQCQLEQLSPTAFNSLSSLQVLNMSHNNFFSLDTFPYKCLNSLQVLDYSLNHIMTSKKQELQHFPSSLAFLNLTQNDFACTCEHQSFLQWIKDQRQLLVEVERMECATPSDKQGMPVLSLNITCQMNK

B1: TLRApt#1R (ssDNA)
DNA: GTTGCTCGTATTTAGGGCCACCGGCACGGGACAAGGCGCGGGACGGCGTAGATCAGGTCGACACCAGTCTTCATCCGC
B1: binds.

B2: TLRApt#4F (ssDNA)
DNA: GCGGATGAAGACTGGTGTGCCAATAAACCATATCGCCGCGTTAGCATGTACTCGGTTGGCCCTAAATACGAGCAAC
B2: binds.
